Measured values reported in patent publication US20260146091A1 (FUNDACI N PARA LA INVESTIGACI N M DICA APLICADA, published 2026).
Blank lines part the entries; values can stand above or below the binder they belong to.

What was measured:
[1] = target: T1, hPD-1-Fc (human PD-1 ectodomain fused to human IgG1 Fc, R&D) (human, UniProt Q15116 25-170); assay: competitive ELISA, human PD-1/PD-L1
T1 construct: extracellular domain; Bought from R&D; not shown: human IgG1 Fc domain
Procedure: (§1) The ability of nanobodies (Nbs) to inhibit the binding of PD-1 with PD-L1 was evaluated by competitive ELISA. For human molecules, plates were coated with 0.5 μg/mL hPD-1-Fc (R&D, Minneapolis, MN) in PBS o/n at 4° C. […] For mouse molecules, a similar protocol was followed. […] The signal of wells incubated without Nbs or antibodies were considered 100% of PD-1/PD-L1 binding.

[2] = target: T2, biotinylated mPD-1-Fc (BPS Bioscience) (mouse; human, UniProt Q02242 25-169, biotinylated (site not stated)); assay: competitive ELISA, mouse PD-1/PD-L1
T2 construct: extracellular domain; Bought from BPS Bioscience; also called mouse PD-1
T2 sequence (looked up): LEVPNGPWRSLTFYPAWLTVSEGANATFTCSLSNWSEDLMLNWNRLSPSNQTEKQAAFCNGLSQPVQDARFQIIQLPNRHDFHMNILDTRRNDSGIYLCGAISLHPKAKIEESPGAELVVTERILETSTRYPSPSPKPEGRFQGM
Procedure: as §1

[3] = target: T3, biotinylated hPD-L1 fused to human IgG Fc (BPS Bioscience) (human, UniProt Q9NZQ7 19-238, biotinylated (site not stated)); assay: competitive ELISA, human PD-1/PD-L1
T3 construct: extracellular domain; Bought from BPS Bioscience; also called human PD-L1
T3 sequence (Q9NZQ7 19-238): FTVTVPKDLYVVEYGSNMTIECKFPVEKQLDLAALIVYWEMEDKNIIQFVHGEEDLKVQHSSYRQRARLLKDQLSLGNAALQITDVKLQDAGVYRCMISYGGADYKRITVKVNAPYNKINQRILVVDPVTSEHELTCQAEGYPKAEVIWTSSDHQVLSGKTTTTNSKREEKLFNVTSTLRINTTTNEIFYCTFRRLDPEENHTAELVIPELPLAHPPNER
Procedure: as §1

[4] = target: T4, mPD-L1-Fc (mouse PD-L1 ectodomain fused to human IgG1 Fc, BioLegend) (mouse; human, UniProt Q9EP73 19-239); assay: competitive ELISA, mouse PD-1/PD-L1
T4 construct: extracellular domain; Bought from BioLegend; not shown: human IgG1 Fc domain
T4 sequence (Q9EP73 19-239): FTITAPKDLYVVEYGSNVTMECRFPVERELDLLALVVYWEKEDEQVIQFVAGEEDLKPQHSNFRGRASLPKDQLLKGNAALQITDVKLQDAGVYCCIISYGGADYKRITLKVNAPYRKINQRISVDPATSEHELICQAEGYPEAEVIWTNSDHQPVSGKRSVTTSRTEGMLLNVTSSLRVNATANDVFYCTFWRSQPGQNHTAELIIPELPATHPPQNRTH
Procedure: as §1

[5] = target: T3, biotinylated hPD-L1 fused to human IgG …; assay: competitive ELISA, human PD-1/PD-L1; the reference value of envafolimab (5.25 nM) is from the literature

T1 sequence (Q15116 25-170): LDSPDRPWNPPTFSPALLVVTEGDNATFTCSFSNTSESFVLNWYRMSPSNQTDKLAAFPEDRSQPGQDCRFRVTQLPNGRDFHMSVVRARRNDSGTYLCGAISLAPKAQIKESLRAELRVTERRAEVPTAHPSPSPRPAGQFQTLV

fold IC50 reduction against monomeric Nb11 [1]: ~40 fold
fold IC50 reduction against nivolumab [1]: 10 fold
fold lower IC50 than nivolumab [1]: 8.6 fold
fold IC50 reduction against clone RMPI-14 [2]: 700 fold
fold IC50 reduction against monomeric Nb11 [2]: ~40 fold
B1: Nb11-Fc (Nb11 fused to mouse IgG1 Fc domain including hinge) (Fc fusion)
chain: AQVQLVQSGGGSVQAGDSLRLSCAVSGHPDSSYSMAWFRQAPGKERELVALISWSGAITHYSDSVKDRFTISRDNAKNEMYLQMDSLKPEDTAVYFCQADDPTSELNQYWGQGTQVTVSSGCKPCICTVPEVSSVFIFPPKPKDVLTITLTPKVTCVVVDISKDDPEVQFSWFVDDVEVHTAQTQPREEQFNSTFRSVSELPIMHQDWLNGKEFKCRVNSAAFPAPIEKTISKTKGRPKAPQVYTIPPPKEQMAKDKVSLTCMITDFFPEDITVEWQWNGQPAENYKNTQPIMDTDGSYFVYSKLNVQKSNWEAGNTFTCSVLHEGLHNHHTEKSLSHSPGK
notes: Fc homodimer, concentrated from supernatants of BHK-21 cells electroporated with SFV-Nb11-Fc RNA; also called dimeric Nb11

fold IC50 reduction against monomeric Nb6p [3]: ~7 fold
fold IC50 reduction of the Fc homodimer against monomeric Nb6p [3]: ~8 fold
fold IC50 reduction against monomeric Nb6p [4]: ~7 fold
fold IC50 reduction of the Fc homodimer against monomeric Nb6p [4]: ~8 fold
fold by which the literature IC50 of envafolimab is higher than that of Nb6p-Fc [5]: ~10 fold
B2: Nb6p-Fc (Nb6p fused to mouse IgG2a Fc domain including hinge) (Fc fusion)
chain: AEVQLVESGGGLVQAGGSLRLSCAAAGRSFNSNAMGWVRQAPGKEREIVAVISATGSYTYYEDSVKGRFTISRDNSKNTVSLQMSSLSSEDTAVYYCAGSRTAALTTIMTLFNYWGQGTQVTVSSPGPRGPTIKPCPPCKCPAPNLLGGPSVFIFPPKIKDVLMISLSPIVTCVVVDVSEDDPDVQISWFVNNVEVHTAQTQTHREDYNSTLRVVSALPIQHQDWMSGKEFKCKVNNKDLPAPIERTISKPKGSVRAPQVYVLPPPEEEMTKKQVTLTCMVTDFMPEDIYVEWTNNGKTELNYKNTEPVLDSDGSYFMYSKLRVEKKNWVERNSYSCSVVHEGLHNHHTTKSFSRTPGK
notes: Fc homodimer, purified on protein A from supernatants of BHK-21 cells electroporated with SFV-Nb6p-Fc RNA; also called dimeric Nb6p
